According to patent EP4328238A1 (Ustav organicke chemie a biochemie AV CR, v.v.i., dated 2024):

Key:
His-C3d N1134A (human) [1] = molecular target: His-C3d N1134A (human) (UniProt P01024); experiment: SPR; ISG65-Avi immobilised, C3d mutant as analyte; the table prints 25
His-C3d N1134A (human) [2] = molecular target: His-C3d N1134A (human) (UniProt P01024); experiment: SPR (BIAcore T200, 25°C); biotinylated ISG65-Avi immobilised, C3d N1134A as analyte; column kon1
Human C3(H2O) (human) [3] = molecular target: Human C3(H2O) (human) (UniProt P01024); experiment: SPR (BIAcore T200, 25°C); biotinylated ISG65-Avi immobilised, C3(H2O) as analyte; column kon1
Human C3(H2O) (human) [4] = molecular target: Human C3(H2O) (human) (UniProt P01024); experiment: SPR (BIAcore T200, 25°C); biotinylated ISG65-Avi immobilised, C3(H2O) as analyte
Human C3(H2O) (human) [5] = molecular target: Human C3(H2O) (human) (UniProt P01024); experiment: SPR (BIAcore T200, 25°C); biotinylated ISG65-Avi immobilised, C3(H2O) as analyte; column koff1
His-C3d N1134A (human) [6] = molecular target: His-C3d N1134A (human) (UniProt P01024); experiment: SPR (BIAcore T200, 25°C); biotinylated ISG65-Avi immobilised, C3d N1134A as analyte; column koff1
His-C3d N1134A (human) [7] = molecular target: His-C3d N1134A (human) (UniProt P01024); experiment: SPR (BIAcore T200, 25°C); biotinylated ISG65-Avi immobilised, C3d N1134A as analyte; relative to wild type
His-C3d N1134A (human) [8] = molecular target: His-C3d N1134A (human) (UniProt P01024); experiment: SPR (BIAcore T200, 25°C); biotinylated ISG65-Avi immobilised, C3d N1134A as analyte
[9] = molecular target: T1, His-C3d-Avi (N-terminal His-tag, C-terminal Avi-tag, biotinylated) (human, UniProt P01024 996-1303, site-specific biotin on the C-terminal Avi-tag); experiment: SPR (BIAcore T200, 25°C); biotinylated C3d-Avi immobilised, ISG65 Y293A as analyte
T1 construct: domain: C3d; Immobilised ligand in SPR for the ISG65 mutants; not shown: N-terminal His-tag; C-terminal Avi-tag

[10] = molecular target: T2, His-C3d (recombinant human C3d, thioester domain of C3) (human, UniProt P01024 996-1303); experiment: SPR (BIAcore T200, 25°C); biotinylated ISG65-Avi immobilised, C3d Wt as analyte
T2 construct: domain: C3d; also called C3d Wt; TED; not shown: His-tag

His-C3d E1110A = molecular target: T3, His-C3d E1110A (human, UniProt P01024 996-1303); experiment: SPR (BIAcore T200, 25°C); biotinylated ISG65-Avi immobilised, C3d E1110A as analyte
T3 construct: domain: C3d; not shown: His-tag

[11] = molecular target: T4, Native human complement factor 3 (C3) (human, UniProt P01024 23-667; P01024 672-1663); experiment: SPR (BIAcore T200, 25°C); biotinylated ISG65-Avi immobilised, C3 as analyte
T4 construct: Purified from normal human serum (Sigma-Aldrich); also called native C3; human C3

[12] = molecular target: T5, Human C3a (ANA domain of C3 when released) (human, UniProt P01024 672-748); experiment: SPR (BIAcore T200, 25°C); biotinylated ISG65-Avi immobilised, C3a as analyte
T5 construct: domain: C3a; also called free C3a; recombinant C3a

Human C3b [13] = molecular target: T6, Human C3b (human, UniProt P01024 749-1663; P01024 23-667); experiment: SPR (BIAcore T200, 25°C); biotinylated ISG65-Avi immobilised, C3b as analyte; column koff1
T6 construct: domain: α-chain of C3b;domain: β-chain of C3b

Human C3b [14] = molecular target: T6, Human C3b; experiment: SPR (BIAcore T200, 25°C); biotinylated ISG65-Avi immobilised, C3b as analyte
Human C3b [15] = molecular target: T6, Human C3b; experiment: SPR (BIAcore T200, 25°C); biotinylated ISG65-Avi immobilised, C3b as analyte; column kon1
His-C3d L1109A = molecular target: T7, His-C3d L1109A (human, UniProt P01024 996-1303); experiment: SPR (BIAcore T200, 25°C); biotinylated ISG65-Avi immobilised, C3d L1109A as analyte
T7 construct: domain: C3d; not shown: His-tag

[16] = molecular target: T2, His-C3d (recombinant human C3d, …); experiment: SPR (BIAcore T200, 25°C); biotinylated ISG65-Avi immobilised, C3d Wt as analyte; column koff1
[17] = molecular target: T4, Native human complement factor 3 (C3); experiment: SPR (BIAcore T200, 25°C); biotinylated ISG65-Avi immobilised, C3 as analyte; column kon1
[18] = molecular target: T2, His-C3d (recombinant human C3d, …); experiment: SPR (BIAcore T200, 25°C); biotinylated ISG65-Avi immobilised, C3d Wt as analyte; column kon1
[19] = molecular target: T4, Native human complement factor 3 (C3); experiment: SPR (BIAcore T200, 25°C); biotinylated ISG65-Avi immobilised, C3 as analyte; column koff1

T6 sequence (P01024 749-1663 limits assumed, chain 1 of 2): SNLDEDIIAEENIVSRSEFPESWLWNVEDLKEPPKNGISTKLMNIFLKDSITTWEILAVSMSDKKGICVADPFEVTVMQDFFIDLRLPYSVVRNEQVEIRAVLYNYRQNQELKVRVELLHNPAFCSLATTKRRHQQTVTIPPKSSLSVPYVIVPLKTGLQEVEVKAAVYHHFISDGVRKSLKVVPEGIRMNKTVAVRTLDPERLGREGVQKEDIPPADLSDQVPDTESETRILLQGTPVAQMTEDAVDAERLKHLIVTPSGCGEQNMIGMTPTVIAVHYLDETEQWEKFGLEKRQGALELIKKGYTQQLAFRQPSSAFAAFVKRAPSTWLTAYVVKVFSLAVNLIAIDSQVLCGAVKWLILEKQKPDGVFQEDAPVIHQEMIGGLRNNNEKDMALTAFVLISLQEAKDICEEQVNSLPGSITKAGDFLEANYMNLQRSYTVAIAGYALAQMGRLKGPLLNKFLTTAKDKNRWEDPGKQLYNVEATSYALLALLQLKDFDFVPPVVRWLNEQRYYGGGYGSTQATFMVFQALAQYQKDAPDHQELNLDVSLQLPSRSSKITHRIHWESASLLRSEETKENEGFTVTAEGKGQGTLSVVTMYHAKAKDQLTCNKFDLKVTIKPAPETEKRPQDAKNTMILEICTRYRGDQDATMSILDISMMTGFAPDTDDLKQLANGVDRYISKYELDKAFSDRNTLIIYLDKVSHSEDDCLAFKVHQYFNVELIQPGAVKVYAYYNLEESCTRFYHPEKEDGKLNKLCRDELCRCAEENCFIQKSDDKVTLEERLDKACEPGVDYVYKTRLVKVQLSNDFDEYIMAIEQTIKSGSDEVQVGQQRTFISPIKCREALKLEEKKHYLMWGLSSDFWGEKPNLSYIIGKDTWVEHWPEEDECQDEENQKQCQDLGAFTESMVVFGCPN
T6 sequence (P01024 23-667 limits assumed, chain 2 of 2): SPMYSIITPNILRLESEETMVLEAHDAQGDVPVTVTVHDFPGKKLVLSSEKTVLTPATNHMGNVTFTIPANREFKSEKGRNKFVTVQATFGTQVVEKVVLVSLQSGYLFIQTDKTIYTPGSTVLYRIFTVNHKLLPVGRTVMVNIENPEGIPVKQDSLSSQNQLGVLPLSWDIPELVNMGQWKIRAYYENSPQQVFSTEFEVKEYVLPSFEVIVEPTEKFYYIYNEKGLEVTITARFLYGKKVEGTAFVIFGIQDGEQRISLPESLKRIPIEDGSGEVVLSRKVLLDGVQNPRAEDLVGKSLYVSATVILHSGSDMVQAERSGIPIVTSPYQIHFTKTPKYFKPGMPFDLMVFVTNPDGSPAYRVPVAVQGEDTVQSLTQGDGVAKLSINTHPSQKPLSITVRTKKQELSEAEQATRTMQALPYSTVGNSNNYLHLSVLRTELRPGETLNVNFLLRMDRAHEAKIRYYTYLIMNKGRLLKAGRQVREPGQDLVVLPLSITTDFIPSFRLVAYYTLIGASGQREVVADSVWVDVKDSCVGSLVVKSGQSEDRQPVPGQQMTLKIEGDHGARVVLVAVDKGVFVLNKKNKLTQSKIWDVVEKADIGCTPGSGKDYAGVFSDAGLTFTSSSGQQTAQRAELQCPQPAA
T4 sequence (P01024 23-667 limits assumed, chain 1 of 2): as the sequence (P01024 23-667 limits assumed, chain 2 of 2) above
T4 sequence (P01024 672-1663 limits assumed, chain 2 of 2): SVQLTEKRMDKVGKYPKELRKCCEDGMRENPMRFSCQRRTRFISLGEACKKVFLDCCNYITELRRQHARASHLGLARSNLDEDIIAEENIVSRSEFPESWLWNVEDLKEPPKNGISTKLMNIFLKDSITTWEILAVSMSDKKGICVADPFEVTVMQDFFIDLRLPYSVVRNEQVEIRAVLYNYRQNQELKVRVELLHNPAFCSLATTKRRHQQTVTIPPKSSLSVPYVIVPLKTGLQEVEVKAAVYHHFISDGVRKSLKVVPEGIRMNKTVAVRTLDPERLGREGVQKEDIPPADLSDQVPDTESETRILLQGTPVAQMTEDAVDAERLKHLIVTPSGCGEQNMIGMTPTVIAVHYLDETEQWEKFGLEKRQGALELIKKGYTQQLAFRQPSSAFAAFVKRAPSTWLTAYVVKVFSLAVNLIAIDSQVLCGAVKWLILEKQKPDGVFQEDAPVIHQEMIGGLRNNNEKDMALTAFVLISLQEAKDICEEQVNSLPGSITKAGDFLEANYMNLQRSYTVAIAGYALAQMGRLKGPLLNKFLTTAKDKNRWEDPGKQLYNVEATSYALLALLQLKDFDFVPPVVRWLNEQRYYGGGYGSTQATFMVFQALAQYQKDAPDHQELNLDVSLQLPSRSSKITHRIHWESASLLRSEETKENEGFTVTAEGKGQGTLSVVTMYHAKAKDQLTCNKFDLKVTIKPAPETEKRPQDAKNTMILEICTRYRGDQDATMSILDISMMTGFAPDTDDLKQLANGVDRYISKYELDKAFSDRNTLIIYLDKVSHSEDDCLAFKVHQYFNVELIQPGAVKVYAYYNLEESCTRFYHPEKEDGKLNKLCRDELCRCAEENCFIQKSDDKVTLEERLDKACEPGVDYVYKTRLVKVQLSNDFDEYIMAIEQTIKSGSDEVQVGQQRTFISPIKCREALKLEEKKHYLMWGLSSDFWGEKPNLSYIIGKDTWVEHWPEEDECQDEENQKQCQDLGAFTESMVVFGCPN
His-C3d N1134A (human), sequence (P01024 996-1303, stated change not applied): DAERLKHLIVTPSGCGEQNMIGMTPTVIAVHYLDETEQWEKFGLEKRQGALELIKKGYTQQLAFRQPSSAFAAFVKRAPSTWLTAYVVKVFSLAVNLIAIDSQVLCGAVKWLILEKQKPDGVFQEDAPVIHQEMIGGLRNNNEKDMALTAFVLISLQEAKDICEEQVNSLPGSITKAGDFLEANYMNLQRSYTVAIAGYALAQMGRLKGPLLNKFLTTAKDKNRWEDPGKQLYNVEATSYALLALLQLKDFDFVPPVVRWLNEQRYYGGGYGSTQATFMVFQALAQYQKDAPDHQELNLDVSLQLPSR
T2 sequence (P01024 996-1303 limits assumed): as the sequence (P01024 996-1303, stated change not applied) above
T7 sequence (P01024 996-1303 L1109A limits assumed): as the sequence (P01024 996-1303, stated change not applied) above, with L114A counted along it
T1 sequence (P01024 996-1303 limits assumed): as the sequence (P01024 996-1303, stated change not applied) above
T5 sequence (P01024 672-748 limits assumed): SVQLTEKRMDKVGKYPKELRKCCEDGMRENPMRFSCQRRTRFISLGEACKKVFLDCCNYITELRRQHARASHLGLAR
T3 sequence (P01024 996-1303 E1110A limits assumed): as the sequence (P01024 996-1303, stated change not applied) above, with E115A counted along it

Molecule: His-ISG65 18-363-Avi (N-terminal hexa-histidine tag, C-terminal Avi-tag, biotinylated) (receptor)
- binding affinity (% of wild type) (His-C3d N1134A (human) [1]): 24%
- kon (His-C3d N1134A (human) [2]): 1.89e+06 M⁻¹ s⁻¹
- kon (Human C3(H2O) (human) [3]): 942000 M⁻¹ s⁻¹
- Kd (Human C3(H2O) (human) [4]): 18 nM
- koff (Human C3(H2O) (human) [5]): 0.017 s⁻¹
- koff (His-C3d N1134A (human) [6]): 0.0542 s⁻¹
- ISG65 binding (%) (His-C3d N1134A (human) [7]): 25%
- Kd (His-C3d N1134A (human) [8]): 28.6 nM

B1: His-ISG65 18-363 Y293A (receptor)
chain: MGSSHHHHHHSSGLVPRGSHMLLVIGSEDNRVPGDKKLTKEGAAALCKMKHLADKVAKERSQELKDRTQNFAGYIEFELYRIDYWLEKLNGPKGRKDGYAKLSDSDIEKVKEIFNKAKDGITKQLPEAKKAGEEAGKLHTEVKKAAENARGQDLDDDTAKSTGLYRVLNWYCITKEERHNATPNCDGIQFRKHYLSVNRSAIDCSSTSYEENYDWSANALQVALNSWEDVKPKKLESAGSDKNCNIGQSSESHPCTMTEEWQTPYKETVEKLRELEDAYQRGKKAHDAMLGYANTAAAVNTKVEQEKPLTEVIAAAKEAGKKGAKIIIPAAAPATPTNSTKNDDSAPTEHVDRGIATNETQVEVGID
notes: also called ISG65 Y293A
- binding result [9]: no binding (tested: ISG65 analyte 1.5-100 nM)

B2: His-ISG65 18-363-Avi (N-terminal hexa-histidine tag, C-terminal Avi-tag, biotinylated) (receptor)
chain: LLVIGSEDNRVPGDKKLTKEGAAALCKMKHLADKVAKERSQELKDRTQNFAGYIEFELYRIDYWLEKLNGPKGRKDGYAKLSDSDIEKVKEIFNKAKDGITKQLPEAKKAGEEAGKLHTEVKKAAENARGQDLDDDTAKSTGLYRVLNWYCITKEERHNATPNCDGIQFRKHYLSVNRSAIDCSSTSYEENYDWSANALQVALNSWEDVKPKKLESAGSDKNCNIGQSSESHPCTMTEEWQTPYKETVEKLRELEDAYQRGKKAHDAMLGYANTAYAVNTKVEQEKPLTEVIAAAKEAGKKGAKIIIPAAAPATPTNSTKNDDSAPTEHVDRGIATNETQVEVGID
modifications: site-specific biotin on the C-terminal Avi-tag
notes: Immobilised ligand in SPR on a CAP chip; also called ISG65-Avi; biotinylated ISG65; not shown: N-terminal hexa-histidine tag of pET15b construct; C-terminal Avi-tag
- Kd [10]: 7.2 nM
- Kd (His-C3d E1110A): 15.7 nM
- Kd [11]: 129 nM
- Kd [12]: 18100 nM
- koff (Human C3b [13]): 0.0212 s⁻¹
- Kd (Human C3b [14]): 80.9 nM
- kon (Human C3b [15]): 262000 M⁻¹ s⁻¹
- Kd (His-C3d L1109A): 52.9 nM
- koff [16]: 0.0379 s⁻¹
- kon [17]: 81800 M⁻¹ s⁻¹
- kon [18]: 5.24e+06 M⁻¹ s⁻¹
- koff [19]: 0.0543 s⁻¹
